Changes are numbered by the printed parent chain.
T1: CD66c (Cluster of Differentiation 66c) on cells (UniProt P40199 35-320, limits assumed)
T1 construct: whole, on cells; also called CEACAM6; CEACAM 6
T1 sequence (looked up): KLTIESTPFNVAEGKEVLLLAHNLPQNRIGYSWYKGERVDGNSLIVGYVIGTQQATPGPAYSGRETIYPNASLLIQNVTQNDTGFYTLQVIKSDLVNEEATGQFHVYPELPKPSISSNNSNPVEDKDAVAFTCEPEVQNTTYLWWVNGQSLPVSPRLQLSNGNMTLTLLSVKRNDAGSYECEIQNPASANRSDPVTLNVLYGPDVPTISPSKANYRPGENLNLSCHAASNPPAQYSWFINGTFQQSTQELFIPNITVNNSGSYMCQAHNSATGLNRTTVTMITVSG

T2: Antigen CD66c (CEACAM6; Sino Biological, Inc.) (UniProt P40199 35-320)
T2 construct: Bought antigen, coated on the ELISA plate; construct not described; also called CECACAM6 (CD66c) antigen; CD66c antigen
T2 sequence (looked up): T1 sequence (looked up)

B1: recombinant humanized anti-CD66c antibody Protein ID 3004 (Vk7 + VH5) (antibody, human IgG1, V domains shown)
VH: QVQLVQSGAEVKKPGASVKISCKASGYSFTDYTMNWVRQAHGQNLEWIGLINPFHGGTVSNQRFKVKATLTVDVSTNTAYMELSRLRSDDTAVYYCVRGDPVRHYYALAYWGQGTLVTVSS
VL: DIQMTQSPSTLSASVGDRVTITCGASENVYGTLNWYQRKPGKAPKLLIYGATNLADGVPSRFSGSGSGTEYTLTISSLQPDDFATYYCQNVLSAPYTFGGGTKLEIK
notes: also called #41
B2: recombinant humanized anti-CD66c antibody Protein ID 3019 (Vk7 + VH10) (antibody, human IgG1, V domains shown)
VH: B1 VH with I20V, R38K, H41P, L70M
VL: B1 VL
notes: also called hu 3019; #51
B3: recombinant humanized anti-CD66c antibody Protein ID 3046 (Vk8 + VH7) (antibody, human IgG1, V domains shown)
VH: B1 VH with V18M, H41P, N44G
VL: B1 VL with G24R, V58M
notes: also called #74
B4: recombinant humanized anti-CD66c antibody Protein ID 3010 (Vk7 + VH7) (antibody, human IgG1, V domains shown)
VH: B1 VH with V18M, H41P, N44G
VL: B1 VL
notes: also called #45

Tests used:
[1] = molecular target: T1, CD66c (Cluster of Differentiation 66c) …; test: flow cytometry on CD66c-positive A549 cells, FITC anti-human IgG
Procedure: Each expressed 96 recombinant humanized antibody was poured and reacted in a test tube containing the same amount […] of CD66c-positive A549 non-small-cell lung cancer cell line at 4° C. for 30 minutes, washed with PBS, and treated with FITC-conjugated goat anti-Huma IgG (DiNona Inc, Korea) was added and incubated at 4° C. for 15 minutes. After washing with PBS, the cells were analyzed with a flow cytometer (Stratedigm, S1000EXi) and the results are shown below.
Among the 96 recombinant humanized antibody candidates, eight were firstly selected based on the degree of expression, the presence of aggregation, and the degree of cell binding (Table 9 and Table 10, FIGS. 3A to 3E).

[2] = molecular target: T2, Antigen CD66c (CEACAM6; Sino …); test: ELISA, CEACAM6 coated 100 ng/well, antibody at 4.57 ng/ml
Procedure: (§1) Antigen CD66c (CEACAM6; Sino Biological, Inc.) and CEACAM1 antigen (Sino Biological, Inc.) were coated on a 96-well plate at a rate of 100 ng per well and then blocked. The primary antibody was diluted 3-fold from 10 ug/ml and bound at 37° C. for 1 hour. […] goat anti-Human Ig-HRP conjugate (Jackson ImmunoResearch) as a secondary antibody was diluted 1:10,000 and incubated at 37° C. for 30 minutes. The washing was carried out at three times between each step, and the TMB reaction was performed, stopped with 1N H₂SO₄ solution at the same amount of TMB solution (100 ul) and then OD value was measured at 450 nm.
(§2) As a result of the experiment, the binding affinities to CD66c antigen of the five kinds of recombinant humanized antibodies selected from among 96 kinds of recombinant humanized antibodies are shown in FIG. 4a, Table 12, FIG. 4b and Table 13. FIG. 4a and Table 12 show the binding capacity of the antibodies to CECACAM6 CD66c) antigen, and FIG. 4b and Table 13 are the results for the CEACAM1 (CD66a) antigen.

[3] = molecular target: T2, Antigen CD66c (CEACAM6; Sino …); test: ELISA, CEACAM6 coated 100 ng/well, antibody at 1.52 ng/ml
Procedure: as §1, §2

[4] = molecular target: T2, Antigen CD66c (CEACAM6; Sino …); test: ELISA, CEACAM6 coated 100 ng/well, antibody at 123.46 ng/ml
Procedure: as §1, §2

[5] = molecular target: T2, Antigen CD66c (CEACAM6; Sino …); test: ELISA, CEACAM6 coated 100 ng/well, antibody at 41.15 ng/ml
Procedure: as §1

[6] = molecular target: T2, Antigen CD66c (CEACAM6; Sino …); test: ELISA, CEACAM6 coated 100 ng/well, antibody at 0.17 ng/ml
Procedure: as §1, §2

[7] = molecular target: T2, Antigen CD66c (CEACAM6; Sino …); test: ELISA, CEACAM6 coated 100 ng/well, antibody at 3333.33 ng/ml
Procedure: as §1, §2

[8] = molecular target: T2, Antigen CD66c (CEACAM6; Sino …); test: ELISA, CEACAM6 coated 100 ng/well, antibody at 13.72 ng/ml
Procedure: as §1, §2

[9] = molecular target: T2, Antigen CD66c (CEACAM6; Sino …); test: ELISA, CEACAM6 coated 100 ng/well, antibody at 0.51 ng/ml
Procedure: as §1, §2

[10] = molecular target: T2, Antigen CD66c (CEACAM6; Sino …); test: ELISA, CEACAM6 coated 100 ng/well, antibody at 370.37 ng/ml
Procedure: as §1, §2

[11] = molecular target: T2, Antigen CD66c (CEACAM6; Sino …); test: ELISA, CEACAM6 coated 100 ng/well, antibody at 10000.00 ng/ml
Procedure: as §1, §2

[12] = molecular target: T2, Antigen CD66c (CEACAM6; Sino …); test: ELISA, CEACAM6 coated 100 ng/well, antibody at 1111.11 ng/ml
Procedure: as §1, §2

Binder	% (% gated × mean), against the chimeric antibody [1] [%]	% gated [1] [%]	Mean (fluorescence) [1]	OD 450 nm [2] [OD 450 nm]	OD 450 nm [3] [OD 450 nm]	OD 450 nm [4] [OD 450 nm]	OD 450 nm [5] [OD 450 nm]	OD 450 nm [6] [OD 450 nm]	OD 450 nm [7] [OD 450 nm]	OD 450 nm [8] [OD 450 nm]	OD 450 nm [9] [OD 450 nm]	OD 450 nm [10] [OD 450 nm]	OD 450 nm [11] [OD 450 nm]	OD 450 nm [12] [OD 450 nm]
B1	85	71	541											
B2	86.9	70	561	1.32	0.95	3.04	2.45	0.68	3.26	1.77	0.8	3.23	3.13	3.34
B3	82.2	71	523											
B4	85.8	70	554											
